Test results: US20240383985A1 (published 2024)

Molecular target: CD33 naturally expressed on HL60 cells (human, UniProt P20138 18-364)
Assay: FACS

Sequence of CD33 naturally expressed on HL60 cells (P20138 18-364): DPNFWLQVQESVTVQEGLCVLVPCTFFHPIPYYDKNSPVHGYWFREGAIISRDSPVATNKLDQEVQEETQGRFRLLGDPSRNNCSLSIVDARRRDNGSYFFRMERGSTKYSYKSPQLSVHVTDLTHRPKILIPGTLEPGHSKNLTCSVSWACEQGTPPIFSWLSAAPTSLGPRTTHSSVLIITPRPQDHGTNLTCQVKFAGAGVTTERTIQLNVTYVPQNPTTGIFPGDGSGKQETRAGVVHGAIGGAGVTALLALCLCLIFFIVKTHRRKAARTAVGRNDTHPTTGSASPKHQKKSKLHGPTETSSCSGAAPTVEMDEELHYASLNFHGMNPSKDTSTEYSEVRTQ

Binder | EC50 [nM]
QP42664406 (antibody) chain 1: DIVMTQSPDSLTVSLGERTTINCKSSQSVLDSSTNKNSLAWYQQKPGQPPKLLLSWASTRESGIPDRFSGSGSGTDFTLTIDSPQPEDSATYYCQQSAHFPITFGQGTRLEIKRTVAAPSVFIFPPSDEQLKSGTASVVCLLNNFYPREAKVQWKVDNALQSGNSQESVTEQDSKDSTYSLSSTLTLSKADYEKHKVYACEVTHQGLSSPVTKSFNRGEC chain 2: QVQLVQSGAEVKKPGESVKVSCKASGYTFTNYGMNWVKQAPGQGLEWMGWINTYTGEPTYADKFQGRVTMTTDTSTSTAYMEIRNLGGDDTAVYYCARWSWSDGYYVYFDYWGQGTSVTVSSASTKGPSVFPLAPSSKSTSGGTAALGCLVKDYFPEPVTVSWNSGALTSGVHTFPAVLQSSGLYSLSSVVTVPSSSLGTQTYICNVNHKPSNTKVDKKVEPKSCDKTHTCPPCPAPEAAGGPSVFLFPPKPKDTLMISRTPEVTCVVVDVSHEDPEVKFNWYVDGVEVHNAKTKPREEQYNSTYRVVSVLTVLHQDWLNGKEYKCKVSNKALPAPIEKTISKAKGQPREPQVYTLPPSREEMTKNQVSLSCAVKGFYPSDIAVEWESNGQPENNYKTTPPVLDSDGSFFLVSKLTVDKSRWQQGNVFSCSVMHEALHNRYTQKSLSLSPGKGGSHHHHHH chain 3: not shown chain 4: not shown | 11.3
QP42664421 (antibody) chain 1: DIVMTQSPDSLTVSLGERTTINCKSSQSVLDSSTNKNSLAWYQQKPGQPPKLLLSWASTRESGIPDRFSGSGSGTDFTLTIDSPQPEDSATYYCQQSAHFPITFGQGTRLEIKRTVAAPSVFIFPPSDEQLKSGTASVVCLLNNFYPREAKVQWKVDNALQSGNSQESVTEQDSKDSTYSLSSTLTLSKADYEKHKVYACEVTHQGLSSPVTKSFNRGEC chain 2: QVQLVQSGAEVKKPGESVKVSCKASGYTFTNYGMNWVKQAPGQGLEWMGWINTYTGEPTYADKFQGRVTMTTDTSTSTAYMEIRNLGGDDTAVYYCARWSWSDGYYVYFDYWGQGTSVTVSSASTKGPSVFPLAPSSKSTSGGTAALGCLVKDYFPEPVTVSWNSGALTSGVHTFPAVLQSSGLYSLSSVVTVPSSSLGTQTYICNVNHKPSNTKVDKKVEPKSCDKTHTCPPCPAPEAAGGPSVFLFPPKPKDTLMISRTPEVTCVVVDVSHEDPEVKFNWYVDGVEVHNAKTKPREEQYNSTYRVVSVLTVLHQDWLNGKEYKCKVSNKALPAPIEKTISKAKGQPREPQVYTLPPSREEMTKNQVSLSCAVKGFYPSDIAVEWESNGQPENNYKTTPPVLDSDGSFFLVSKLTVDKSRWQQGNVFSCSVMHEALHNRYTQKSLSLSPGKGGSHHHHHH chain 3: MEFGLSWLFLVAILKGVQCITCPPPMSVEHADIWVKSYSLYSRERYICNSGFKRKAGTCSLTECVLNKATNVAHWTTPSLKCIRGGGSGGGGGGGGSSYVLTQPSSVSVAPGQTATISCGGHNIGSKNVHWYQQRPGQSPVLVIYQDNKRPSGIPERFSGSNSGNTATLTISGTQAMDEADYYCQVWDNYSVLFGGGTKLTVL chain 4: not shown | 11.6
QP42664415 (antibody) chain 1: DIVMTQSPDSLTVSLGERTTINCKSSQSVLDSSTNKNSLAWYQQKPGQPPKLLLSWASTRESGIPDRFSGSGSGTDFTLTIDSPQPEDSATYYCQQSAHFPITFGQGTRLEIKRTVAAPSVFIFPPSDEQLKSGTASVVCLLNNFYPREAKVQWKVDNALQSGNSQESVTEQDSKDSTYSLSSTLTLSKADYEKHKVYACEVTHQGLSSPVTKSFNRGEC chain 2: QVQLVQSGAEVKKPGESVKVSCKASGYTFTNYGMNWVKQAPGQGLEWMGWINTYTGEPTYADKFQGRVTMTTDTSTSTAYMEIRNLGGDDTAVYYCARWSWSDGYYVYFDYWGQGTSVTVSSASTKGPSVFPLAPSSKSTSGGTAALGCLVKDYFPEPVTVSWNSGALTSGVHTFPAVLQSSGLYSLSSVVTVPSSSLGTQTYICNVNHKPSNTKVDKKVEPKSCDKTHTCPPCPAPEAAGGPSVFLFPPKPKDTLMISRTPEVTCVVVDVSHEDPEVKFNWYVDGVEVHNAKTKPREEQYNSTYRVVSVLTVLHQDWLNGKEYKCKVSNKALPAPIEKTISKAKGQPREPQVYTLPPSREEMTKNQVSLSCAVKGFYPSDIAVEWESNGQPENNYKTTPPVLDSDGSFFLVSKLTVDKSRWQQGNVFSCSVMHEALHNRYTQKSLSLSPGKGGSHHHHHH chain 3: MEFGLSWLFLVAILKGVQCQVQLVQSGAEVKKPGESLKVSCKASGYTFTSYYMHWVRQAPGQGLEWMGIINPSGGSTSYAQKFQGRVTMTRDTSTSTVYMELSSLRSEDTAVYYCARGSAYYYDFADYWGQGTLVTVSSGGGGSGGGGSGGGGSITCPPPMSVEHADIWVKSYSLYSRERYICNSGFKRKAGTCSLTECVLNKATNVAHWTTPSLKCIR chain 4: not shown | 14.2

The remaining lines, values ahead:

EC50 [nM] | Binder
12 | QP42664412 (antibody) chain 1: DIVMTQSPDSLTVSLGERTTINCKSSQSVLDSSTNKNSLAWYQQKPGQPPKLLLSWASTRESGIPDRFSGSGSGTDFTLTIDSPQPEDSATYYCQQSAHFPITFGQGTRLEIKRTVAAPSVFIFPPSDEQLKSGTASVVCLLNNFYPREAKVQWKVDNALQSGNSQESVTEQDSKDSTYSLSSTLTLSKADYEKHKVYACEVTHQGLSSPVTKSFNRGEC chain 2: QVQLVQSGAEVKKPGESVKVSCKASGYTFTNYGMNWVKQAPGQGLEWMGWINTYTGEPTYADKFQGRVTMTTDTSTSTAYMEIRNLGGDDTAVYYCARWSWSDGYYVYFDYWGQGTSVTVSSASTKGPSVFPLAPSSKSTSGGTAALGCLVKDYFPEPVTVSWNSGALTSGVHTFPAVLQSSGLYSLSSVVTVPSSSLGTQTYICNVNHKPSNTKVDKKVEPKSCDKTHTCPPCPAPEAAGGPSVFLFPPKPKDTLMISRTPEVTCVVVDVSHEDPEVKFNWYVDGVEVHNAKTKPREEQYNSTYRVVSVLTVLHQDWLNGKEYKCKVSNKALPAPIEKTISKAKGQPREPQVYTLPPSREEMTKNQVSLSCAVKGFYPSDIAVEWESNGQPENNYKTTPPVLDSDGSFFLVSKLTVDKSRWQQGNVFSCSVMHEALHNRYTQKSLSLSPGKGGSHHHHHH chain 3: MEFGLSWLFLVAILKGVQCSYVLTQPSSVSVAPGQTATISCGGHNIGSKNVHWYQQRPGQSPVLVIYQDNKRPSGIPERFSGSNSGNTATLTISGTQAMDEADYYCQVWDNYSVLFGGGTKLTVLGGGGSGGGGSGGGGSITCPPPMSVEHADIWVKSYSLYSRERYICNSGFKRKAGTCSLTECVLNKATNVAHWTTPSLKCIR chain 4: not shown
2.27 | QP42664269 (antibody) chain 1: DIVMTQSPDSLTVSLGERTTINCKSSQSVLDSSTNKNSLAWYQQKPGQPPKLLLSWASTRESGIPDRFSGSGSGTDFTLTIDSPQPEDSATYYCQQSAHFPITFGQGTRLEIKRTVAAPSVFIFPPSDEQLKSGTASVVCLLNNFYPREAKVQWKVDNALQSGNSQESVTEQDSKDSTYSLSSTLTLSKADYEKHKVYACEVTHQGLSSPVTKSFNRGEC chain 2: QVQLVQSGAEVKKPGESVKVSCKASGYTFTNYGMNWVKQAPGQGLEWMGWINTYTGEPTYADKFQGRVTMTTDTSTSTAYMEIRNLGGDDTAVYYCARWSWSDGYYVYFDYWGQGTSVTVSSASTKGPSVFPLAPSSKSTSGGTAALGCLVKDYFPEPVTVSWNSGALTSGVHTFPAVLQSSGLYSLSSVVTVPSSSLGTQTYICNVNHKPSNTKVDKKVEPKSCDKTHTCPPCPAPEAAGGPSVFLFPPKPKDTLMISRTPEVTCVVVDVSHEDPEVKFNWYVDGVEVHNAKTKPREEQYNSTYRVVSVLTVLHQDWLNGKEYKCKVSNKALPAPIEKTISKAKGQPREPQVYTLPPSREEMTKNQVSLSCAVKGFYPSDIAVEWESNGQPENNYKTTPPVLDSDGSFFLVSKLTVDKSRWQQGNVFSCSVMHEALHNRYTQKSLSLSPGKGGSHHHHHH chain 3: not shown chain 4: not shown
8.39 | QP42664400 (antibody) chain 1: DIVMTQSPDSLTVSLGERTTINCKSSQSVLDSSTNKNSLAWYQQKPGQPPKLLLSWASTRESGIPDRFSGSGSGTDFTLTIDSPQPEDSATYYCQQSAHFPITFGQGTRLEIKRTVAAPSVFIFPPSDEQLKSGTASVVCLLNNFYPREAKVQWKVDNALQSGNSQESVTEQDSKDSTYSLSSTLTLSKADYEKHKVYACEVTHQGLSSPVTKSFNRGEC chain 2: QVQLVQSGAEVKKPGESVKVSCKASGYTFTNYGMNWVKQAPGQGLEWMGWINTYTGEPTYADKFQGRVTMTTDTSTSTAYMEIRNLGGDDTAVYYCARWSWSDGYYVYFDYWGQGTSVTVSSASTKGPSVFPLAPSSKSTSGGTAALGCLVKDYFPEPVTVSWNSGALTSGVHTFPAVLQSSGLYSLSSVVTVPSSSLGTQTYICNVNHKPSNTKVDKKVEPKSCDKTHTCPPCPAPEAAGGPSVFLFPPKPKDTLMISRTPEVTCVVVDVSHEDPEVKFNWYVDGVEVHNAKTKPREEQYNSTYRVVSVLTVLHQDWLNGKEYKCKVSNKALPAPIEKTISKAKGQPREPQVYTLPPSREEMTKNQVSLSCAVKGFYPSDIAVEWESNGQPENNYKTTPPVLDSDGSFFLVSKLTVDKSRWQQGNVFSCSVMHEALHNRYTQKSLSLSPGKGGSHHHHHH chain 3: not shown chain 4: not shown
1.97 | QP42884285 (antibody) chain 1: DIVMTQSPDSLTVSLGERTTINCKSSQSVLDSSTNKNSLAWYQQKPGQPPKLLLSWASTRESGIPDRFSGSGSGTDFTLTIDSPQPEDSATYYCQQSAHFPITFGQGTRLEIKTVAAPSVFIFPPSYVLTQPSSVSVAPGQTATISCGGHNIGSKNVHWYQQRPGQSPVLVIYQDNKRPSGIPERFSGSNSGNTATLTISGTQAMDEADYYCQVWDNYSVLFGGGTKLTVLRTVAAPSVFIFPPSDEQLKSGTASVVCLLNNFYPREAKVQWKVDNALQSGNSQESVTEQDSKDSTYSLSSTLTLSKADYEKHKVYACEVTHQGLSSPVTKSFNRGEC chain 2: QVQLVQSGAEVKKPGESVKVSCKASGYTFTNYGMNWVKQAPGQGLEWMGWINTYTGEPTYADKFQGRVTMTTDTSTSTAYMEIRNLGGDDTAVYYCARWSWSDGYYVYFDYWGQGTSVTVSSASTKGPQVQLVQSGAEVKKPGESLKVSCKASGYTFTSYYMHWVRQAPGQGLEWMGIINPSGGSTSYAQKFQGRVTMTRDTSTSTVYMELSSLRSEDTAVYYCARGSAYYYDFADYWGQGTLVTVSSASTKGPSVFPLAPSSKSTSGGTAALGCLVKDYFPEPVTVSWNSGALTSGVHTFPAVLQSSGLYSLSSVVTVPSSSLGTQTYICNVNHKPSNTKVDKKVEPKSCDKTHTCPPCPAPEAAGGPSVFLFPPKPKDTLMISRTPEVTCVVVDVSHEDPEVKFNWYVDGVEVHNAKTKPREEQYNSTYRVVSVLTVLHQDWLNGKEYKCKVSNKALPAPIEKTISKAKGQPREPQVYTLPPSREEMTKNQVSLSCAVKGFYPSDIAVEWESNGQPENNYKTTPPVLDSDGSFFLVSKLTVDKSRWQQGNVFSCSVMHEALHNRYTQKSLSLSPGKGGSHHHHHH chain 3: not shown chain 4: not shown
